The values that follow come from paper PMC8546688.

This experiment deals with His-tagged FtsZ (filamentous temperature-sensitive protein Z) (Streptococcus suis). Description: SPR; His-tagged FtsZ immobilized onto sensor chips as the ligand; MsmK constructs in concentration series as analytes; buffer without protein as negative control. (In general: Surface plasmon resonance follows binding to a sensor surface in real time, without labels.)

For the substance “A_MsmK, MsmK with the Walker A motif deleted, His-tagged (from UniProt A0A0H3N1P0 1-376) (enzyme)”, the dissociation constant (Kd) (commonly the equilibrium constant for the complex coming apart) amounted to 0.406 nM; the koff (in general, the rate constant with which the complex falls apart) was found to be 0.000102 s⁻¹; the kon (commonly a measure of how fast the partners come together) stood at 251000 M⁻¹ s⁻¹.

With “B_MsmK, MsmK with the Walker B motif deleted, His-tagged (from UniProt A0A0H3N1P0 1-376) (enzyme)”, the Kd stood at 0.309 nM, the koff worked out at 0.000132 s⁻¹ and the kon stood at 427000 M⁻¹ s⁻¹.
